Results: US8394380B2, “Compositions and methods for alzheimer's disease” (Primex Clinical Laboratories, Inc., priority 2004, dated 2013)
Like-named read-outs stand apart in the source and are kept apart here. Positions of bridges follow the written chain, without caps; N, C: chain ends. No end group written: not given here.

Assays:
Aβ42 [1] = biological target: T1, Aβ42 (Homo sapiens, UniProt P05067); test: ELISA using CDR-based synthetic peptides: biotinylated Aβ42 added to peptide-coated plates; type: binding
Protocol: ELISA analysis was carried out using MaxiSorp microtiter plates coated overnight with synthetic peptide at a concentration of 10 μg/ml in carbonate buffer. After washing, plates were blocked with PBS/2% BSA for 1 h at 37° C. After incubation and a washing step, biotinylated Aβ42 was added to each well. Plates were again incubated for 1 h at 37° C., washed, and reacted with an avidin-peroxidase conjugate diluted 1:500 (Pharmingen, San Jose, Calif., USA) followed by the ABTS single solution (Zymed) as described above.

Aβ42 [2] = biological target: T1, Aβ42; test: Competition ELISA: binding of biotinylated Aβ42 to immobilized cyclic C44; details: competitor pre-incubated with biotinylated Aβ42 overnight at 4° C., N44 linear
Protocol: For competition ELISA, cyclic C44 and linear N44 were diluted in PBS/1% BSA and incubated with biotinylated Aβ42 overnight at 4° C. prior to addition to plates coated with cyclic C44.

[3] = test system: rat cultured hippocampal neurons; test: Neuroprotection assay, Aβ42-induced neurotoxicity, MTT reduction
Protocol: (§2) Primary cultures of hippocampal neurons were prepared from 17-18 day gestational Wistar rat embryos as described previously (Brewer et al., 1993) with some modifications (Massieu et al., 2003). Briefly, after dissection, 10-12 hippocampi were chopped into 300-μm cubes, incubated in a 0.25% trypsin solution, and dispersed by trituration in a 0.08% DNAase and 0.52% soybean trypsin inhibitor containing solution. Cells were suspended in Neurobasal culture medium (GIBCO/Life technologies, Rockville Md., USA) (Brewer et al. 1993) supplemented with B27 (Minus AO GIBCO/life technologies, Rockville, Md., USA), 0.5 mM L-glutamine, 20 μg/ml gentamicin, and 0.2 mM glutamate, and plated at a density of 260-290×10^3/cm^2 in Costar 48-well plates (Cambridge, Mass., USA), precoated with poly-L-lysine (5 μg/ml). Cells were cultured for 6 days in vitro (DIV) at 37° C. in a humidified 5% CO2/95% air atmosphere. Glucose (5 mM) and cytosine arabinoside (10 μM) were added to cultures 4 days after plating.
(§3) The effect of individual treatments of the different peptides on cell viability was also tested. Aβ42 was pre-incubated at 37° C. during 48 h to promote its aggregation and increase neurotoxicity. Cell viability was assessed by the MTT (3-(4,5-dimethylthiazol-2-yl)-2,5-diphenyltetrazolium bromide) dye reduction assay (Mosmann, 1983) as previously described (Garcia and Massieu, 2001). The assay is based on the ability of living mitochondria to convert MTT into insoluble formazan by active dehydrogenases.
(§4) In brief, 72 h after exposure to Aβ42, cell cultures were incubated with MTT (150 μM) during a 1 h period at 37° C. in a 5% CO2/95% O2-containing atmosphere. The medium was aspirated, and the precipitated formazan was solubilized with 0.480 ml isopropanol. After solubilization, isopropanol was transferred to eppendorf tubes, centrifuged (18 000 rpm for 30 s) and the optical density in the supernatant measured at 570 nm in a spectrofluorometer (Beckman DU-640). Cell damage was expressed as percent reduction in mitochondrial activity relative to control cultures. Data were expressed as means±SE (standard error) of 4 independent experiments.

[4] = test system: primary cultures of hippocampal neurons and mixed cortical neurons; details: cited from earlier work
[5] = test system: rat cultured hippocampal neurons
Protocol: as §2, §3, §4

human Aβ42 (wild-type) = biological target: T2, human Aβ42 (wild-type) (Homo sapiens, UniProt P05067); test: ELISA binding of phage-displayed scFv / serum to Aβ42-coated wells; details: control wild type phage M13
T2 construct: coated overnight with 2 μg/ml of wild-type Aβ42 (BACHEM Bioscience Inc); purchased BACHEM Bioscience Inc
Protocol: One week after the fourth immunization, mouse sera were tested in ELISA for the presence of specific anti-Aβ42 antibodies. Briefly, a 96-well plate (Nunc, Roskilde, Denmark) was coated with 1 μg/ml of Aβ42 in phosphate buffer (pH 7.8) overnight at 4° C. The plate was washed with phosphate buffer containing 0.1% Tween-20 (PBS-Tween) and blocked with PBS containing 2% bovine serum albumin (PBS-BSA). After washing, mouse sera diluted in PBS-BSA 1% was added, and the plate was incubated for 1 h at 37° C. The plate was washed and goat anti-mouse IgG conjugated with HRP (Zymed, San Francisco, Calif., USA) was added. After incubation for 1 h at 37° C., the plate was washed and 2,2′-azino-bis-(3-ethyl-benzothiazoline-6-sulphonic acid (ABTS) single solution (Zymed) was added. The OD reading at 405 was registered using Opsys MR Microplate Reader (DYNEX Technologies, Chantilly, Va., USA).
Fresh 2×YT without glucose but supplemented with ampicillin and kanamycin was added to each well, and plates were incubated overnight at 30° C. with shaking Microtiter plates (Nunc) were coated with Aβ and blocked as described above, supernatants from plates containing phage were added, and after incubation for 1 h at 37° C., plates were washed with PBS-Tween. […] The OD reading at 405 was registered using Opsys MR Microplate Reader (DYNEX Technologies). […]

[6] = biological target: T3, Flemish (A21G) mutant Aβ42 (Homo sapiens, UniProt P05067, A692G); test: ELISA binding of phage-displayed scFv to Flemish mutant Aβ42; details: control wild type phage M13
T3 construct: mutant Aβ42 (SynPep Corp., CA, USA); purchased SynPep Corp
Protocol: (§1) Microtiter plates were coated with Aβ42 and blocked as described above, 10^10 of each phage clone were added, and after incubation for 1 h at 37° C., plates were washed with PBS/Tween. An anti-M13 monoclonal HRP (horseradish peroxidase) conjugate (Amersham Pharmacia Biotech, USA) diluted in PBS/1% BSA was then added to the plates followed by an incubation for 1 h 37° C. Plates were washed and the ABTS (2,2′-azino-bis(3-ethylbenzothiazoline-6-sulfonic acid) single solution (Zymed, San Francisco, Calif., USA) was added. The OD 405 nm readings were measured using Opsys MR Microplate Reader (DYNEX Technologies, Inc., Chantilly, Va., USA). An identical ELISA procedure was performed using Flemish (containing an A to G substitution at aa21; i.e. A21G) and Dutch (containing an E to Q substitution at aa22; E22Q) mutant Aβ42 (SynPep Corp., CA, USA).

Dutch (E22Q) mutant Aβ42 = biological target: T4, Dutch (E22Q) mutant Aβ42 (Homo sapiens, UniProt P05067, E693Q); test: ELISA binding of phage-displayed scFv to Dutch mutant Aβ42; details: control wild type phage M13
T4 construct: mutant Aβ42 (SynPep Corp., CA, USA); purchased SynPep Corp
Protocol: as §1

Aβ1-28 = Aβ1-28 (Homo sapiens, UniProt P05067); test: ELISA binding of phage-displayed scFv to Aβ1-28; details: control wild type phage M13
[7] = peptide in cyclic form, 40 μM with Aβ42 40 μM, 72 h
[8] = peptide in linear form, 40 μM with Aβ42 40 μM, 72 h
[9] = plates coated with peptide 10 μg/ml

CASVRGWYVRSVFDPAC (cyclic or linear) [C44]
binding to Aβ42 in ELISA (Aβ42 [1]; cyclic peptide, S—S bond reduced with β-mercaptoethanol): abolished completely
binding to Aβ42 in ELISA (Aβ42 [1]; linear form after spontaneous air oxidation, overnight agitation): restored
binding to Aβ42 in ELISA (Aβ42 [1]; peptide in cyclic form): recognized
binding to Aβ42 in ELISA (Aβ42 [1]; peptide in its linear form): weak recognition
inhibition of binding of Aβ42 to immobilized cyclic C44 (Aβ42 [2]): inhibited, in a dose dependent manner
effect of peptide alone on basal MTT reducing capacity ([3]; peptide alone, without Aβ42): Neither N44 nor C44 (either the linear or cyclic forms) alone altered basal MTT reducing capacity
neuroprotective effect ([3]; peptide in cyclic form): 53.6%
decrease in mitochondrial activity when co-incubated with Aβ42 [3, 7]: 11.9%
protection against Aβ42 neurotoxicity [3, 7]: showed protection
neuroprotective effect ([3]; peptide in linear form): 69.3%
prevention of Aβ42 neurotoxicity [3, 8]: significantly prevented
reduction in mitochondrial activity when co-incubated with Aβ42 [3, 8]: 7.7%

IWGCSGKLICTTAVP (not fully specified (bridges); also: cyclic, ring type not given here) [GM15, reference compound]
binding to Aβ42 in ELISA (Aβ42 [1]; [9]): did not bind

CC[C@H](C)C(=O)O[C@H]1C[C@@H](C)C=C2C=C[C@H](C)[C@H](CC[C@@H]3C[C@@H](O)CC(=O)O3)[C@H]21 [lovastatin]
intracellular and extracellular levels of Aβ [4]: reduce

CADWRYRSVFGPVSVAC (disulfide 1-17 (inferred)) [Scr44, reference compound]
OD405, binding of biotinylated Aβ42 to coated peptide (Aβ42 [1]; peptide in cyclic form, negative control): 0.25±0.03
binding to Aβ42 in ELISA (Aβ42 [1]; [9]): did not bind

ASVRGWYVRSVFDPA [N44]
effect of peptide alone on basal MTT reducing capacity [5]: Neither N44 nor C44 (either the linear or cyclic forms) alone altered basal MTT reducing capacity

Aβ42: human amyloid-beta peptide, pre-aggregated, used as neurotoxic insult [reference compound]
decrease in mitochondrial activity ([3]; Aβ42 40 μM alone, 72 h): 24.3%

B1: b4.6: phage-displayed human anti-Aβ42 scFv, SEQ ID NO:12, HCDR3 SHYWDS (protein)
scFv: QVQLQESGPGLVKPSETLSLTCSVSGGSVSSGNYYWTWIRQPPGKGLEWIGYIYSSGSTSYNPSLMSRVTISLDMSKNQFSLRLTSVTAADTAVYYCARSHYWDSWSPGTLVTVSSGGGGSGGGGSGGGGSDIVMTQSPSSMSASVGDTVTIACRASRDIRNDLAWYQQKPGKAPKLLIYAASRLQSGVPSRFSGSGSFTDFTLTIQLCLQPDDFATYYCLQDSDYPLTFGGGTKLEIKR
binding to wild type Aβ42 in ELISA (human Aβ42 (wild-type)): bound
binding to Flemish mutant Aβ42 in ELISA [6]: bound
binding to Dutch mutant Aβ42 in ELISA (Dutch (E22Q) mutant Aβ42): not statistically different from control phage M13
binding to Aβ1-28 in ELISA (Aβ1-28): not statistically different from control phage M13
